One block for each molecule: values may come before it.
Tests used:
SiaP = biological target: T1, SiaP (Photobacterium profundum, UniProt Q6LPV9); test: isothermal titration calorimetry; type: binding; conditions: 50 mM Tris-HCl pH 8.0, 150 mM NaCl, 25 °C; single-site fit
T1 construct: gene SMB20295; native signal peptide (residues 1-22) removed, apparently untagged (pET30deltaSE, ion-exchange and hydrophobic purification), E. coli BL21(DE3)
From the text: isothermal titration calorimetry on SiaP | We confirmed that SiaP binds sialic acid with nanomolar affinity

[1] = biological target: SiaQM complex with SiaM R292A (Photobacterium profundum)
[2] = biological target: SiaQM transporter complex from Photobacterium profundum (Photobacterium profundum)

Kd (SiaP): 561 nM
Molecule: CC(=O)N[C@H]1[C@H]([C@H](O)[C@H](O)CO)OC(O)(C(=O)O)C[C@@H]1O (stereo partly drawn) [Neu5Ac]

reduction of [3H]-Neu5Ac transport activity in proteoliposomes against wildtype SiaPQM [1]: 87 % reduction
Molecule: SiaP (substrate-binding P-subunit of the sialic acid TRAP transporter from Photobacterium profundum) (natural protein)

reduction of [3H]-Neu5Ac transport activity in proteoliposomes against wildtype SiaPQM [2]: 77 % reduction
Molecule: SiaP D59A (natural protein)
